Experimental data: US20030119023, “Nucleic acid binding polypeptides characterized by flexible linkers connected nucleic acid binding modules” (published 2003)

Assays:
[1] = molecular target: 2x3F pep11-9 (artificial); assay: in vitro fluorescence ELISA, values in figure only; details: label: biotin
Experimental: (§1) Incubations are performed at room temperature for 40 minutes. Black streptavidin-coated wells are blocked with 4% marvel for 1 hour. Binding reactions are added to the streptavidin-coated wells and incubated for a further 40 minutes at room temperature. Wells are washed 5 times in 100 μl wash buffer (1×PBS (pH 7.0), […] ZnCl₂, 0.01 mg/ml BSA, and 0.5% Tween 20), and finally 50 μl QuantaBlu peroxidase substrate solution (Pierce) is added to detect bound HA-tagged zinc finger peptide. ELISA signals are read in a SPECTRAmax GeminiXS spectrophotometer (Molecular Devices) and analysed using SOFTmax Pro 3.1.2 (Molecular Devices).
(§2) To compare the specificity of the 2x3F pep11-9 and 3x2F pep11-9 peptides, samples from the same translation reaction are assayed against each of the binding sites above. The ELISA signals obtained from each assay are then normalised relative to the maximum signal obtained for that peptide. (In this way the absolute amount of either peptide produced by the in vitro transcription/translation system is insignificant).

[2] = molecular target: 3x2F pep11-9 (artificial); assay: in vitro fluorescence ELISA, values in figure only; details: label: biotin
3x2F pep11-9 (artificial), sequence (chain, as listed by the source): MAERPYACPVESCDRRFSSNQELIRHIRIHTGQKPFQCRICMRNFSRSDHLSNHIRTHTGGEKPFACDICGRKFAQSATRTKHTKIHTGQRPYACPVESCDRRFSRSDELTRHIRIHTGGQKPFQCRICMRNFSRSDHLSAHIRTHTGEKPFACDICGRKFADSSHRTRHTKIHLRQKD
Experimental: as §1, §2

2x3F pep11-9 (artificial), sequence (chain, as listed by the source): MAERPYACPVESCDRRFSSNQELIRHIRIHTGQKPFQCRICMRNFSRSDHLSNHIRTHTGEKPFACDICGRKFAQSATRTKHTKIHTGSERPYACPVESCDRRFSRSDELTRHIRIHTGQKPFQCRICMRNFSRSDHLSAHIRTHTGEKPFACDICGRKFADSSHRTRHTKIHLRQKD

B1: 11-9 (dsDNA)
DNA 1: GGCCAGGCGGCAGGGGTT
DNA 2: AACCCCTGCCGCCTGGCC
B1: binds [1]; binds [2].
